{
  "source": "paper PMC11321297",
  "about": "(Cell Insight, 2024)",
  "biological_target": "the molecule itself",
  "assay": "cross-linking",
  "data": [
    {"protein": "His-GLUD1^K84R (enzyme) not shown", "values": [
      {"measurement": "stoichiometry N", "value": 6}
    ]}
  ]
}
